This passage reports lowest amount of C11NH with visible signal results from US20220003777A1.

This assay has as its target C1 esterase inhibitor, human plasma-derived (human) (UniProt P05155). Kind of assay: Western blot of serially diluted C11NH/BSA probed with 20 µg/mL StcE E447D. Background: Immunoblotting shows a protein as a band on a membrane.

Sequence of C1 esterase inhibitor, human plasma-derived (human) (P05155 23-500 limits assumed): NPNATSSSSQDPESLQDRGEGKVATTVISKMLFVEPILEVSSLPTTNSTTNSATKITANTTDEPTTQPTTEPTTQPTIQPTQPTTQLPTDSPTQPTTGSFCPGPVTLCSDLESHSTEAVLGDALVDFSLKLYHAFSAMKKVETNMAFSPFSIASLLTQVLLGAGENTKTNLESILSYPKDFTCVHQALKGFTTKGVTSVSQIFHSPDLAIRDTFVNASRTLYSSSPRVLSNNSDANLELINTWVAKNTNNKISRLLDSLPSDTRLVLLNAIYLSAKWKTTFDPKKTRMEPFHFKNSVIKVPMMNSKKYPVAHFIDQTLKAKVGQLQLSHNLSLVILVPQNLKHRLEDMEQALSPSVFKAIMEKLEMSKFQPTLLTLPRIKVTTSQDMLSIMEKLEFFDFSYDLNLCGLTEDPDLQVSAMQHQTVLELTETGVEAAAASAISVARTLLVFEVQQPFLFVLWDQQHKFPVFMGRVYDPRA

Substance “StcE E447D, catalytically inactive point mutant of StcE, N-terminal His-tagged (from UniProt O82882 36-898) (enzyme; other documents disagree on this pair)” showed a lowest amount of C11NH with visible signal of 0.03 µg.
